Measurements taken from US20250388673A1 (HIFIBIO, published 2025).

T1: human BTLA (human, UniProt Q7Z6A9 31-289)
T1 construct: also called hBTLA; HEK293.hBTLA
T1 sequence: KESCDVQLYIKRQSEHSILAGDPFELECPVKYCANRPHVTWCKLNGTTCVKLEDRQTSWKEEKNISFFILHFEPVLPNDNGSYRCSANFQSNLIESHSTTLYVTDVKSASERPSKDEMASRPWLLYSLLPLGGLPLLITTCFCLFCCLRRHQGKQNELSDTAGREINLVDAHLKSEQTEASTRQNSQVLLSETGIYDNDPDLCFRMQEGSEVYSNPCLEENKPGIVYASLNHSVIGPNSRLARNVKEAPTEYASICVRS

B1: HFB6-4-hG1 (human-mouse chimeric monoclonal antibody) (antibody, human IgG1, kappa, V domains shown)
VH: EVQLQQSGAELVNPGASVKLSCTTSGFNIKDTYIHWVKQRPEQGLEWIGRNDPANGNTKYDPKFQGKATITADTSSSTAYLQLSSLTSEDTAVYYCASYEGYYERFGYWGQGTLVTVSA
VL: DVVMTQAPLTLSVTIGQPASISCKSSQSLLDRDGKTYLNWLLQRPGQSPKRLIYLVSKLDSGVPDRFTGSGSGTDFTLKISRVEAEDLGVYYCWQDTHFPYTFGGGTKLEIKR
notes: also called HFB6-4 parental antibody
B2: HFB6-5hz1-hG1 (antibody, human IgG1, V domains shown)
VH: QVQLVQSGAEVKKPGSSVKVSCKASGVNIKDTYMYWVRQAPGQGLEWIGRIDPANGYARYAQKFQGRATITADESTSTAYMELSSLRSEDTAVYYCAVYDGYYESFDVWGQGTLVTVSS
VL: DIQMTQSPSSLSASVGDRVTITCRSSQSLLDSDGKSYLNWLQQKPGKAPKRLIYLVSKLDSGVPSRFSGSGSGTDFTLTISSLQPEDFATYYCWQGTLFPRTFGQGTKLEIK
notes: Humanized variant of HFB6-5, human IgG1 (hG1)
B3: HFB6-5hz13-hG1 (antibody, human IgG1, V domains shown)
VH: QVQLVQSGAEVKKPGSSVKVSCKASGVNIKDTYMYWVRQAPGQGLEWIGRIDPANGYARYAQKFQGRATITADESTSTAYMELSSLRSEDTAVYYCAVYDGYYESFDVWGQGTLVTVSS
VL: EIVLTQSPGTLSVSPGERATISCRSSQSLLDSDGKTYLNWLQQKPGQAPRRLIYLVSKRDTGVPDRFSGSGSGTDFTLTISRVEPEDFAVYYCWQGTLFPRTFGQGTKLEIK
notes: as for B2
B4: HFB6-5hz3-hG1 (antibody, human IgG1, V domains shown)
VH: EVQLVESGGGLVQPGRSLRLSCTASGVNIKDTYMYWVRQAPGKGLEWVGRIDPANGYTRYTASFKGRATISADGSKSIAYLQMNSLKTEDTAVYYCAVYDGYYESFDVWGQGTLVTVSS
VL: DIQMTQSPSSLSASVGDRVTITCRSSQSLLDSDGKSYLNWLQQKPGKAPKRLIYLVSKLDSGVPSRFSGSGSGTDFTLTISSLQPEDFATYYCWQGTLFPRTFGQGTKLEIK
notes: as for B2
B5: HFB6-5hz7-hG1 (antibody, human IgG1, V domains shown)
VH: QVQLVQSGAEVKKPGSSVKVSCKASGVNIKDTYMYWVRQAPGQGLEWIGRIDPANGYARYAQKFQGRATITADESTSTAYMELSSLRSEDTAVYYCAVYDGYYESFDVWGQGTLVTVSS
VL: DVVMTQSPLSLPVTLGQPASISCRSSQSLLDSDGKTYLNWLQQRPGQSPRRLIYLVSKRDSGVPDRFSGSGSGTDFTLKISRVEAEDLGVYYCWQGTLFPRTFGQGTKLEIK
notes: as for B2
B6: HFB6-5hz5-hG1 (antibody, human IgG1, V domains shown)
VH: QVQLQESGPGLVKPSGTLSLTCAASGVNIKDTYMYWVRQPPGKGLEWIGRIDPANGYTRYNPSFKSRATISADKSKNQASLKLSSVTAADTAVYYCAVYDGYYESFDVWGQGTLVTVSS
VL: DIQMTQSPSSLSASVGDRVTITCRSSQSLLDSDGKSYLNWLQQKPGKAPKRLIYLVSKLDSGVPSRFSGSGSGTDFTLTISSLQPEDFATYYCWQGTLFPRTFGQGTKLEIK
notes: as for B2
B7: HFB6-5hz6-hG1 (antibody, human IgG1, V domains shown)
VH: EVQLVQSGAEVKKPGESLKISCKGSGVNIKDTYMYWVRQMPGKGLEWIGRIDPANGYTRYSPSFQGQVTISADKSISTAYLQLSSLKASDTAMYYCAVYDGYYESFDVWGQGTLVTVSS
VL: DIQMTQSPSSLSASVGDRVTITCRSSQSLLDSDGKSYLNWLQQKPGKAPKRLIYLVSKLDSGVPSRFSGSGSGTDFTLTISSLQPEDFATYYCWQGTLFPRTFGQGTKLEIK
notes: as for B2
B8: HFB6-5hz14-hG1 (antibody, human IgG1, V domains shown)
VH: QVQLVQSGAEVKKPGASVKVSCKASGVNIKDTYMYWVRQAPGQGLEWIGRIDPANGYTRYAQKFQGRATITADTSTSTVYMELSSLRSEDTAVYYCAVYDGYYESFDVWGQGTLVTVSS
VL: EIVLTQSPGTLSVSPGERATISCRSSQSLLDSDGKTYLNWLQQKPGQAPRRLIYLVSKRDTGVPDRFSGSGSGTDFTLTISRVEPEDFAVYYCWQGTLFPRTFGQGTKLEIK
notes: as for B2
B9: HFB6-5hz8-hG1 (antibody, human IgG1, V domains shown)
VH: QVQLVQSGAEVKKPGASVKVSCKASGVNIKDTYMYWVRQAPGQGLEWIGRIDPANGYTRYAQKFQGRATITADTSTSTVYMELSSLRSEDTAVYYCAVYDGYYESFDVWGQGTLVTVSS
VL: DVVMTQSPLSLPVTLGQPASISCRSSQSLLDSDGKTYLNWLQQRPGQSPRRLIYLVSKRDSGVPDRFSGSGSGTDFTLKISRVEAEDLGVYYCWQGTLFPRTFGQGTKLEIK
notes: as for B2
B10: HFB6-5hz4-hG1 (antibody, human IgG1, V domains shown)
VH: EVQLVESGGGLVQPGGSLKLSCAASGVNIKDTYMYWVRQASGKGLEWIGRIDPANGYTRYAASFKGRATISADDSKNTAYLQLNSLKTEDTAVYYCAVYDGYYESFDVWGQGTLVTVSS
VL: DIQMTQSPSSLSASVGDRVTITCRSSQSLLDSDGKSYLNWLQQKPGKAPKRLIYLVSKLDSGVPSRFSGSGSGTDFTLTISSLQPEDFATYYCWQGTLFPRTFGQGTKLEIK
notes: as for B2
B11: HFB6-5hz2-hG1 (antibody, human IgG1, V domains shown)
VH: QVQLVQSGAEVKKPGASVKVSCKASGVNIKDTYMYWVRQAPGQGLEWIGRIDPANGYTRYAQKFQGRATITADTSTSTVYMELSSLRSEDTAVYYCAVYDGYYESFDVWGQGTLVTVSS
VL: DIQMTQSPSSLSASVGDRVTITCRSSQSLLDSDGKSYLNWLQQKPGKAPKRLIYLVSKLDSGVPSRFSGSGSGTDFTLTISSLQPEDFATYYCWQGTLFPRTFGQGTKLEIK
notes: as for B2
B12: HFB6-4hz21-hG1 (antibody, human IgG1, V domains shown)
VH: EVQLVESGGGLVQPGRSLRLSCTTSGFNIKDTYIHWFRQAPGKGLEWVGRNDPANGNTKYTASFKGRATISADGSKSIAYLQMNSLKTEDTAVYYCASYEGYYERFGYWGQGTLVTVSS
VL: DIVMTQSPDSLAVSLGERATINCKSSQSLLDRDGKTYLNWLQQKPGQSPKRLIYLVSKLDSGVPDRFSGSGSGTDFTLTISSLQAEDLAVYYCWQDTHFPYTFGQGTKLEIK
notes: Humanized variant of HFB6-4, human IgG1 (hG1)
B13: HFB6-4hz23-hG1 (antibody, human IgG1, V domains shown)
VH: QVQLQESGPGLVKPSGTLSLTCAVSGFNIKDTYIHWVRQPPGKGLEWIGRNDPANGNTKYNPSFKSRATISADKSKNQASLKLSSVTAADTAVYYCASYEGYYERFGYWGQGTLVTVSS
VL: DIVMTQSPDSLAVSLGERATINCKSSQSLLDRDGKTYLNWLQQKPGQSPKRLIYLVSKLDSGVPDRFSGSGSGTDFTLTISSLQAEDLAVYYCWQDTHFPYTFGQGTKLEIK
notes: as for B12
B14: HFB6-4hz24-hG1 (antibody, human IgG1, V domains shown)
VH: EVQLVQSGAEVKKPGESLKISCKTSGFNIKDTYIHWVRQMPGKGLEWIGRNDPANGNTKYSPSFQGQVTISADKSISTAYLQLSSLKASDTAMYYCASYEGYYERFGYWGQGTLVTVSS
VL: DIVMTQSPDSLAVSLGERATINCKSSQSLLDRDGKTYLNWLQQKPGQSPKRLIYLVSKLDSGVPDRFSGSGSGTDFTLTISSLQAEDLAVYYCWQDTHFPYTFGQGTKLEIK
notes: as for B12
B15: HFB6-4hz22-hG1 (antibody, human IgG1, V domains shown)
VH: EVQLVESGGGLVQPGGSLKLSCATSGFNIKDTYIHWVRQASGKGLEWIGRNDPANGNTKYAASFKGRATISADDSKNTAYLQLNSLKTEDTAVYYCASYEGYYERFGYWGQGTLVTVSS
VL: DIVMTQSPDSLAVSLGERATINCKSSQSLLDRDGKTYLNWLQQKPGQSPKRLIYLVSKLDSGVPDRFSGSGSGTDFTLTISSLQAEDLAVYYCWQDTHFPYTFGQGTKLEIK
notes: as for B12
B16: HFB6-5hz9-hG1 (antibody, human IgG1, V domains shown)
VH: EVQLVESGGGLVQPGRSLRLSCTASGVNIKDTYMYWVRQAPGKGLEWVGRIDPANGYTRYTASFKGRATISADGSKSIAYLQMNSLKTEDTAVYYCAVYDGYYESFDVWGQGTLVTVSS
VL: DVVMTQSPLSLPVTLGQPASISCRSSQSLLDSDGKTYLNWLQQRPGQSPRRLIYLVSKRDSGVPDRFSGSGSGTDFTLKISRVEAEDLGVYYCWQGTLFPRTFGQGTKLEIK
notes: as for B2
B17: HFB6-5hz11-hG1 (antibody, human IgG1, V domains shown)
VH: QVQLQESGPGLVKPSGTLSLTCAASGVNIKDTYMYWVRQPPGKGLEWIGRIDPANGYTRYNPSFKSRATISADKSKNQASLKLSSVTAADTAVYYCAVYDGYYESFDVWGQGTLVTVSS
VL: DVVMTQSPLSLPVTLGQPASISCRSSQSLLDSDGKTYLNWLQQRPGQSPRRLIYLVSKRDSGVPDRFSGSGSGTDFTLKISRVEAEDLGVYYCWQGTLFPRTFGQGTKLEIK
notes: as for B2
B18: HFB6-5hz12-hG1 (antibody, human IgG1, V domains shown)
VH: EVQLVQSGAEVKKPGESLKISCKGSGVNIKDTYMYWVRQMPGKGLEWIGRIDPANGYTRYSPSFQGQVTISADKSISTAYLQLSSLKASDTAMYYCAVYDGYYESFDVWGQGTLVTVSS
VL: DVVMTQSPLSLPVTLGQPASISCRSSQSLLDSDGKTYLNWLQQRPGQSPRRLIYLVSKRDSGVPDRFSGSGSGTDFTLKISRVEAEDLGVYYCWQGTLFPRTFGQGTKLEIK
notes: as for B2
B19: HFB6-5hz15-hG1 (antibody, human IgG1, V domains shown)
VH: EVQLVESGGGLVQPGRSLRLSCTASGVNIKDTYMYWVRQAPGKGLEWVGRIDPANGYTRYTASFKGRATISADGSKSIAYLQMNSLKTEDTAVYYCAVYDGYYESFDVWGQGTLVTVSS
VL: EIVLTQSPGTLSVSPGERATISCRSSQSLLDSDGKTYLNWLQQKPGQAPRRLIYLVSKRDTGVPDRFSGSGSGTDFTLTISRVEPEDFAVYYCWQGTLFPRTFGQGTKLEIK
notes: as for B2
B20: HFB6-5hz10-hG1 (antibody, human IgG1, V domains shown)
VH: EVQLVESGGGLVQPGGSLKLSCAASGVNIKDTYMYWVRQASGKGLEWIGRIDPANGYTRYAASFKGRATISADDSKNTAYLQLNSLKTEDTAVYYCAVYDGYYESFDVWGQGTLVTVSS
VL: DVVMTQSPLSLPVTLGQPASISCRSSQSLLDSDGKTYLNWLQQRPGQSPRRLIYLVSKRDSGVPDRFSGSGSGTDFTLKISRVEAEDLGVYYCWQGTLFPRTFGQGTKLEIK
notes: as for B2

biological target: T1, human BTLA; assay: flow cytometry, HEK293 cells overexpressing human BTLA
Description: HEK293 cells overexpressing human BTLA and Expi293 cells overexpressing cynomolus BTLA were incubated with different concentrations of humanized anti-BTLA antibodies. Anti-BTLA antibody binding to target cells were quantified with an AF647-conjugated anti-human IgG Fc secondary antibody by flow cytometry.

Binding result, binds:
B1, B2, B3, B4, B5, B6, B7, B8, B9, B10, B11, B12, B13, B14, B15, B16, B17, B18, B19, B20
